Laboratory results from patent publication US20230272049A1 (published 2023).

T1: HPV16 E7 peptide on HLA-A*02:01 (human)
T1 peptide: YMLDLQPET

B1: E7-11-176 (TCR, V domains shown)
Valpha: DQQVKQNSPSLSVQEGRISILNCDYTNSMFDYFLWYKKYPAEGPTFLISISSIKDKNEDGRFTVFLNKSAKHLSLHIVPSQPGDSAVYFCAAKNSNSGYALNFGKGTSLLVTP
Vbeta: not shown
B2: E7-11-28 (TCR, V domains shown)
Valpha: GQQVMQIPQYQHVQEGEDFTTYCNSSTTLSNIQWYKQRPGGHPVFLIQLVKSGEVKKQKRLTFQFGEAKKNSSLHITATQTTDVGTYFCAGIGSSNTGKLIFGQGTTLQVKP
Vbeta: EPEVTQTPSHQVTQMGQEVILRCVPISNHLYFYWYRQILGQKVEFLVSFYNNEISEKSEIFDDQFSVERPDGSNFTLKIRSTKLEDSAMYFCAITGRVSYEQYFGPGTRLTVT
B3: E7-11-194 (TCR, V domains shown)
Valpha: GQQVMQIPQYQHVQEGEDFTTYCNSSTTLSNIQWYKQRPGGHPVFLIQLVKSGEVKKQKRLTFQFGEAKKNSSLHITATQTTDVGTYFCAGLGSSNTGKLIFGQGTTLQVKP
Vbeta: EPEVTQTPSHQVTQMGQEVILRCVPISNHLYFYWYRQILGQKVEFLVSFYNNEISEKSEIFDDQFSVERPDGSNFTLKIRSTKLEDSAMYFCATTGRASYEQYFGPGTRLTVT
B4: E7-11-455 (TCR, V domains shown)
Valpha: QKEVEQDPGPLSVPEGAIVSLNCTYSNSAFQYFMWYRQYSRKGPELLMYTYSSGNKEDGRFTAQVDKSSKYISLFIRDSQPSDSATYLCAMAGSGNTGKLIFGQGTTLQVKP
Vbeta: DTGVSQDPRHKITKRGQNVTFRCDPISEHNRLYWYRQTLGQGPEFLTYFQNEAQLEKSRLLSDRFSAERPKGSFSTLEIQRTEQGDSAMYLCASSSSTKNIQYFGAGTRLSVL

Biological target: T1, HPV16 E7 peptide on HLA-A*02:01
Assay: multimer staining

Question: Does B1 bind?
Answer: recognises

Question: Does B2 bind?
Answer: recognises

Question: Does B3 bind?
Answer: recognises

Question: Does B4 bind?
Answer: recognises
